Reference: patent US20220125947A1
Positions count from the first letter of the chain named.

B1: VG9B86 (antibody, human IgG1, kappa, V domains shown)
VH: QVQLQESGPGLVKPSETLSLTCTVSGDSISSSYWSWIRQPAGKGLECIGRFYSSGSTSYNPSLKSRVTMAIDTSKNQFSLKLTSVTAADTAVYYCARYSGSYWYFDLWGRGTTVTVSS
VL: EIVLTQSPATLSLSPGERATLSCRASQSVSSYLAWYQQRPGQAPRLLIYDTSNRATGIPARFSGSGSGTDFTLTISSLAPEDFAVYYCQQRSDWLLTFGGGTKVEIKR
B2: VG9B383 (antibody, human IgG1, lambda, V domains shown)
VH: QVQLQESGPGLVKPSETLSLTCTVSSGSISSYYWNWIRQPAGKGLEWVGRIYTIGNTNYNPSLKSRVTMSIDTSKNQFSLNLSSVTAADTAVYFCAREGYYDSSGSFFPGAFGIWGQGTMVTVSS
VL: SSELTQPASVSGSPGQSITISCTGTSNDVGSYNLVSWYQQHPGKAPKLMIYAGSKRPSGISNRFSGSKSGNTASLTISGLQAEDEADYYCCSFAGATNVVFGGGTKLTVLG
B3: VG9B465 (antibody, human IgG1, lambda, V domains shown)
VH: QVQLQQSGPGLVKPSETLSLTCTVSGGSITSYYWNWIRQPAGKGLEWIGRIYTIGNTNYNPSLKSRVTMSIDTSKHQFSLKLSSVTGADTAVYYCAREGYYESDGSFFPGAFNIWGQGTMVTVSS
VL: B2 VL with F93Y, A96T, L107V
B4: VG9B470 (antibody, human IgG1, kappa, V domains shown)
VH: QVTLKESGPTLVKPTQTLTLTCTFSGFSLTTSGVGVGWIRQPPGKALEWLALILWNDHTIYSPSLKSRLTITKDTSKNQVVLTMTNMDPVDTAAYFCARDKWELRDAFDIWGQGTMVTVSS
VL: EIVMTQSPSFLSASVGDRVTFTCRASQGISRYLAWYQQKPGRAPNLLIYVASTLQSGVPSRFSGSGSGTEFTLTISSLLPEDFATYYCQQLISYPYTFSQGTRLEIKR
B5: VG9B201 (antibody, human IgG1, lambda, V domains shown)
VH: QVTLKESGPTLVKPTQTLTLTCTFSGFSLTTHGVGVGWIRQPPRKALEWLALIYWNADKHYSPSLKSRLTITKDTSKNQVVLTMTHMDPVDTATYYCAHEGDWGHYFDFWGQGTLVTVSS
VL: QLVLTQPPSVSAAPGQKVTISCSGSSSNIGNNDVSWYQQLPGTAPKLLIYDNNRRPSGIPDRFSGSKSGTSATLGITGLQTGDEADYYCETWDSSLSAIWVFGGGTKVTVLG
B6: VG9B194 (antibody, human IgG1, lambda, V domains shown)
VH: EVQLLESGAEVKKPGASVKVSCKASGYTFTGDYMHWVRQAPGQGLEWMGWINPNSGYTNNAEKFQGRVTMTRDTSISTAYMELSRLSSDDTAVYYCTRELDALDVWGQGTMVTVSS
VL: QSVLTQPPSASGSPGQSVTISCTGTSSDVGGYNYVSWYQQHPGKAPKLMIYEVSKRPSGVPDRFSGSKSGNTASLTVSGLQAEDEADYYCNSYAGSNNFEVFGGGTKVTVLG
B7: VG9B411 (antibody, human IgG1, kappa, V domains shown)
VH: EVQLVESGGGLVKPGGSLRLSCSASGFTFSNYDMNWVRQAPGKGLEWVSSISSSSSYIYYADSVKGRFTISRDNAKNSLYLQMNSLRAEDTAVYHCARDVGVTTDYYYYGMDVWGQGTTVTVSS
VL: EIVMTQSPSSVSASVGDRVTITCRASQGINSWLAWYQQDPYKAPKLLIYAASTLQSGVPSRFGGRGSGTEFTLTISSLQPEDFAVYYCQQYNNWPRTFGQGTKVDIKR
B8: VG9B396 (antibody, human IgG1, lambda, V domains shown)
VH: EVQLVESGPGLVQPSETLSLTCTVSGDSIRGYYWNWIRQPAGKGLEWIGRIFTTGNTNYNPSLKSRLTMSLDTSKNQFSLKLNSVTAADTAVYYCAREKWDSSSSALYFDFWGQGTLVTVSS
VL: QSVLTQAPSVSGAPGQRVTISCTGSSSNIGADYDVKWYQQLPGTAPKLLIYGNTDRPSGVPDRFSGSKSGTSASLAITGLQAEDEADYYCQSYDSRLTGYVVFGGGTKLTVLG
B9: VG9B382 (antibody, human IgG1, lambda, V domains shown)
VH: QVQLQESGPGLVKPSETLSLTCTVSGDSISGYYWNYIRQPAGKGLDWIGRIFTTGNTNYNPSLKSRVTMSVDTSKNQFSLKLTSVTAADTAVYYCARERWDSSSSALYFDYWGQGTLVTVSS
VL: B8 VL with A7P, V35I, T54S, D55N, A73V, R96S, L97M, T98S
B10: VG9B472 (antibody, human IgG1, kappa, V domains shown)
VH: QVQLVESGGGLVKPGGSLRLSCAASGFTFSHYDMNWVRQAPGKGLEWVSSISSSSSYIFYADSVKGRFTISRDNAKNSLLLQMNSLRAEDTAVYHCARDRGVGDTSDYYSFGLDVWGQGTTVTVSS
VL: EIVLTQSPSSLSASVGDRVTITCRASQGIATYLAWYQQKPGKVPNLLIYAASTLQSGVPSRFSGSGSGTDFTLTISSLQPEDVATYYCQKYNSAPPWTFGQGTKVEIKR
B11: VG9B73 (antibody, human IgG1, kappa, V domains shown)
VH: EVQLVQSGGGLVKPGGSLRLSCAASGFTFSNYDMNWVRQAPGKGLEWVSSISSSSSYIYYADSVKGRFTISRDNARNSLFLQMSSLRAEDTAVYYCAREIGVTGTTYYQDYGMDVWGQGTTVTVSS
VL: EIVMTQSPGTLSLSPGERATLSCRASQSFSSNYLAWYQQKPGQAPRLLIYGASSRATGIPDRFSGSGSGTDFTLTISRLEPEDFALYYCQQYGSSPPFTFGQGTKVEIKR
B12: VG9B98 (antibody, human IgG1, kappa, V domains shown)
VH: EVQLVQSGGDLVKSGGSLRLSCAASGFTFSSYSMYWVRQAPGKGLEWVSSIGSSSTYIFYADSVKGRFTISRDNAMTSLYLQMNRLGAEDSAVYYCARDGELGPFEYWGQGTLVTVSS
VL: EIVLTQSPGTLSLSPGERATLSCRASQSVSTSYLAWFQQKPGQAPRLLIFGTSSRATGIPDRFSGSGSGTDFTLTISRLEPEDFAVYHCLQYGRSPLTFGGGTKVDIKR
B13: VG9B88 (antibody, human IgG1, kappa, V domains shown)
VH: EVQLVESGGGLVKPGGSLRLSCAVSGFTFSSYTMNWVRQAPGKGLEWVSSISTSSSYIDYADSVKGRFTISRDNAKKSLYLQMNSLRAEDTAVYYCARDGDMVAPIKGSFDYWGQGTLVTVSS
VL: EIVLTQSPLSLPVTPGEPASISCRSSQSLLNSDDGNTYLDWYLQKPGQSPQLLIYTLSYRASGVPDRFSGSGSGTDFTLKISRVEAEDVGVYYCMQRIEFPITFGQGTRLEIKR
B14: VG9B384 (antibody, human IgG1, lambda, V domains shown)
VH: QVQLQESGPALVKPTQTLTLTCTFSGFSLSSSGMCVSWIRQPPGKALEWLTLIDWFDDKYYSTSLKTRLTISKDTSKNQVVLTMTNMDPVDTATYYCARIRGTGAYYYGLDVWGQGTMVTVSS
VL: SYELMQPPSVSVSPGQTASITCSGNELGDKYASWYQQQPGQSPVLVIYQDNKRPSGIPERFSGSNSGNTATLTISGTQAMDEADYYCQAWDSSKVVFGGGTKLTVLG
B15: VG9B430 (antibody, human IgG1, kappa, V domains shown)
VH: B7 VH with V5L, N31S, T119M
VL: B11 VL with M4L, E17D, F29V, S30A, N32S, A44S, L86V, F98Y, V106L
B16: VG9B58 (antibody, human IgG1, kappa, V domains shown)
VH: QVQLQESGPGLVKPSETLSLTCTVSGGSIKSSYWTWIRQPPGKGLEWIGYMFYLGSTNYNPSLKSRVTMSIDTSRNQFSLKLSSVTAADTAVYYCSRERPVLDAFDIWGQGTMVTVSS
VL: DIQMTQSPSAMSASVGDRVTITCRASQDITNYLAWFQQKPGKVPKRLIYAASSLQGGVPSRFSGSGSGTEFTLTISSLQPEDFSTYYCLQHDTYPYTFGQGTKVDIKR
B17: VG9B143 (antibody, human IgG1, lambda, V domains shown)
VH: EVQLVESGGGLVQPGGSLRLSCAASGFTFSTYGMNWVRQAPGKGLEWISYISTSSYTIYYSDSVKGRFTVSRDNAKNSLYLQMNSLRDEDTAVYYCAREGDWWYFDLWGRGTTVTVSS
VL: QSALTQPASVSGSPGQSITISCTGTSSDVGGYNYVSWYQQHPGKAPKLMIYEVSNRPSGVSYRFSGSKSGNTASLTISGLQAEDEADYYCSSYTSSSTLVFGGGTKLTVLG

These binders were tested against Vg5/Vd2 T cell receptor on SKW3 cells (UniProt A0JD36) (assay: flow cytometry, DRC binding at 37°C on SKW3 cells expressing Vg5/Vd2).
Chain of Vg5/Vd2 T cell receptor on SKW3 cells (A0JD36 20-115): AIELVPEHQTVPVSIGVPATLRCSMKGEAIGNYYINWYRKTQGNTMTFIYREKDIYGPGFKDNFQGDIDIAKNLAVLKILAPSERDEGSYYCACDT

Max. Activity (fold over background) | Binder
207 | B1
284 | B2
214 | B3
231 | B4
205 | B5
148 | B6
2.76 | B7
222 | B8
275 | B9

What follows are binders tested against Vg9/Vd1 T cell receptor on SKW3 cells (UniProt Q99603) (assay: flow cytometry, DRC binding at 37°C on SKW3 cells expressing Vg9/Vd1).
Chain of Vg9/Vd1 T cell receptor on SKW3 cells (Q99603 21-122): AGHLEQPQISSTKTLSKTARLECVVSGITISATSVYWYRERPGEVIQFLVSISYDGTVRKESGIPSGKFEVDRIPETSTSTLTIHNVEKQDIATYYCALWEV

Max. Activity (fold over background) | Binder
1.16 | B1
1.36 | B2
7.28 | B3
1.59 | B4
2.74 | B5
6.29 | B6
24.9 | B7
2.19 | B8
1.04 | B9

These binders were tested against Vg9/Vd2 T cell receptor on SKW3_4 cells (UniProt Q99603) (assay: flow cytometry, DRC binding at 37°C on SKW3_4 cells expressing Vg9/Vd2).
Chain of Vg9/Vd2 T cell receptor on SKW3_4 cells (Q99603 21-122, chain 1 of 2): as the sequence (Q99603 21-122) above
Chain of Vg9/Vd2 T cell receptor on SKW3_4 cells (A0JD36 20-115, chain 2 of 2, further chain): as the sequence (A0JD36 20-115) above

Max. Activity (fold over background) | Binder
138 | B1
184 | B2
148 | B3
167 | B4
152 | B5
151 | B6
19.1 | B7
155 | B8
177 | B9

The binders below were run against Vg5/Vd2 T cell receptor on SKW3 cells (UniProt A0JD36) (assay: flow cytometry, dose-response binding at 37 C on SKW3 cells expressing Vg5/Vd2).

Max. Activity (fold over background) | Binder
2.22 | B10
1.79 | B11
2.47 | B12
18.8 | B13
18.7 | B14
1.49 | B15
1.49 | B16
1.07 | B17

The binders below were run against Vg9/Vd1 T cell receptor on SKW3 cells (UniProt Q99603) (assay: flow cytometry, dose-response binding at 37 C on SKW3 cells expressing Vg9/Vd1).

Max. Activity (fold over background) | Binder
328 | B10
317 | B11
344 | B12
346 | B13
290 | B14
325 | B15
350 | B16
241 | B17

The binders below were run against Vg9/Vd2 T cell receptor on SKW3_4 cells (UniProt Q99603) (assay: flow cytometry, dose-response binding at 37 C on SKW3_4 cells expressing Vg9/Vd2).

Max. Activity (fold over background) | Binder
171 | B10
118 | B11
154 | B12
154 | B13
121 | B14
143 | B15
160 | B16
97.3 | B17
